Laboratory results published in patent EP2670776B1 (F. Hoffmann-La Roche AG, dated 2018).

B2: Knob F241S/F243R (knob Fc with F241S/F243R mutations) (other, name in EU numbering)
chain: DKTHTSPPSPAPELLGGPSVSLRPPKPKDTLMISRTPEVTCVVVDVSHEDPEVKFNWYVDGVEVHNAKTKPREEQYNSTYRVVSVLTVLHQDWLNGKEYKCKVSNKALPAPIEKTISKAKGQPREPQVYTLPPSREEMTKNQVSLWCLVKGFYPSDIAVEWESNGQPENNYKTTPPVLDSDGSFFLYSKLTVDKSRWQQGNVFSCSVMHEALHNHYTQKSLSLSPGK
notes: Positions are EU numbers, not positions on the entry; also called F241S/F243R mutant knob

What was measured:
[1] = biological target: B2; assay: SPR (BioRad ProteOn), ligand hole wild-type immobilized on NHS activated sensor, analyte knob F241S/F243R 6.25-200 nM
hole F241S/F243R = biological target: T1, hole F241S/F243R (human, UniProt P0DOX5 223-449 = IgG part, F241S; F243R); assay: SPR (BioRad ProteOn), ligand hole F241S/F243R immobilized on NHS activated sensor, analyte knob F241S/F243R 6.25-200 nM
T1 construct: SPR ligand named only 'hole F241S/F243R'; Positions are EU numbers

B1: hole Fc, wild-type hole (single Fc chain, hinge cysteines mutated to serine) (other)
chain: DKTHTSPPSPAPELLGGPSVFLFPPKPKDTLMISRTPEVTCVVVDVSHEDPEVKFNWYVDGVEVHNAKTKPREEQYNSTYRVVSVLTVLHQDWLNGKEYKCKVSNKALPAPIEKTISKAKGQPREPQVYTLPPSREEMTKNQVSLSCAVKGFYPSDIAVEWESNGQPENNYKTTPPVLDSDGSFFLVSKLTVDKSRWQQGNVFSCSVMHEALHNHYTQKSLSLSPGK
notes: IgG1 Fc with T366S, L368A, Y407V only, made in E. coli in the same manner as the knob/knob Fc; also called hole wild-type; hole/hole homodimer
Q: With B1 as the binder, how does the Kd [1] read?
A: Its Kd is < 10 nM.

Q: With B2 as the binder, how does the Kd (hole F241S/F243R) read?
A: The Kd was < 10 nM.
